Several values for one entry are separate records, joined by “and”; a condition that tells them apart may be missing. Equal values may be shown once.
T1: LMAN1/ERGIC53 (endogenous) (human (endogenous in 293A)), P49257
T1 chain: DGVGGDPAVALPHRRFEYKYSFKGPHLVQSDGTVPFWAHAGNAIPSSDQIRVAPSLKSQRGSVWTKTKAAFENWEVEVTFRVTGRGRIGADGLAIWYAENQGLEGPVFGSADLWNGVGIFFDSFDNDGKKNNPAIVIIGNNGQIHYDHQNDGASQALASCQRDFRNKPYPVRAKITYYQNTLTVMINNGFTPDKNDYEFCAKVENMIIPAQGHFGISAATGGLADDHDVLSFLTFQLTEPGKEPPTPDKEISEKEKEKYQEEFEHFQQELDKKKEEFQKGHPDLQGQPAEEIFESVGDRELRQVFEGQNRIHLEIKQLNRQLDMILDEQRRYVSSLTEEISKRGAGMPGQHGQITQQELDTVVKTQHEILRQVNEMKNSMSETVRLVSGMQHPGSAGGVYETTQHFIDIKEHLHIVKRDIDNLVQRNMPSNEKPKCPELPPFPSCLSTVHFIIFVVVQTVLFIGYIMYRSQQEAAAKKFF


How the values were obtained:
[1] = target: T1, LMAN1/ERGIC53 (endogenous) (human …); experiment: SDS/PAGE without reducing agent and immunoblot; conditions: remark: other sources report otherwise
[2] = target: the molecule itself; experiment: SDS/PAGE without reducing agent and immunoblot

Row | Binder | stoichiometry N [1] | stoichiometry N [2]
1 | LMAN1/ERGIC53 (endogenous), P49257 31-510 (natural protein) DGVGGDPAVALPHRRFEYKYSFKGPHLVQSDGTVPFWAHAGNAIPSSDQIRVAPSLKSQRGSVWTKTKAAFENWEVEVTFRVTGRGRIGADGLAIWYAENQGLEGPVFGSADLWNGVGIFFDSFDNDGKKNNPAIVIIGNNGQIHYDHQNDGASQALASCQRDFRNKPYPVRAKITYYQNTLTVMINNGFTPDKNDYEFCAKVENMIIPAQGHFGISAATGGLADDHDVLSFLTFQLTEPGKEPPTPDKEISEKEKEKYQEEFEHFQQELDKKKEEFQKGHPDLQGQPAEEIFESVGDRELRQVFEGQNRIHLEIKQLNRQLDMILDEQRRYVSSLTEEISKRGAGMPGQHGQITQQELDTVVKTQHEILRQVNEMKNSMSETVRLVSGMQHPGSAGGVYETTQHFIDIKEHLHIVKRDIDNLVQRNMPSNEKPKCPELPPFPSCLSTVHFIIFVVVQTVLFIGYIMYRSQQEAAAKKFF | 2 and 6 | –
2 | Myc-LMAN1 C475A (natural protein, UniProt P49257 31-510, looked up) DGVGGDPAVALPHRRFEYKYSFKGPHLVQSDGTVPFWAHAGNAIPSSDQIRVAPSLKSQRGSVWTKTKAAFENWEVEVTFRVTGRGRIGADGLAIWYAENQGLEGPVFGSADLWNGVGIFFDSFDNDGKKNNPAIVIIGNNGQIHYDHQNDGASQALASCQRDFRNKPYPVRAKITYYQNTLTVMINNGFTPDKNDYEFCAKVENMIIPAQGHFGISAATGGLADDHDVLSFLTFQLTEPGKEPPTPDKEISEKEKEKYQEEFEHFQQELDKKKEEFQKGHPDLQGQPAEEIFESVGDRELRQVFEGQNRIHLEIKQLNRQLDMILDEQRRYVSSLTEEISKRGAGMPGQHGQITQQELDTVVKTQHEILRQVNEMKNSMSETVRLVSGMQHPGSAGGVYETTQHFIDIKEHLHIVKRDIDNLVQRNMPSNEKPKCPELPPFPSALSTVHFIIFVVVQTVLFIGYIMYRSQQEAAAKKFF | – | 2
3 | Myc-LMAN1 C466A C475A double mutant (natural protein, UniProt P49257 31-510, looked up) DGVGGDPAVALPHRRFEYKYSFKGPHLVQSDGTVPFWAHAGNAIPSSDQIRVAPSLKSQRGSVWTKTKAAFENWEVEVTFRVTGRGRIGADGLAIWYAENQGLEGPVFGSADLWNGVGIFFDSFDNDGKKNNPAIVIIGNNGQIHYDHQNDGASQALASCQRDFRNKPYPVRAKITYYQNTLTVMINNGFTPDKNDYEFCAKVENMIIPAQGHFGISAATGGLADDHDVLSFLTFQLTEPGKEPPTPDKEISEKEKEKYQEEFEHFQQELDKKKEEFQKGHPDLQGQPAEEIFESVGDRELRQVFEGQNRIHLEIKQLNRQLDMILDEQRRYVSSLTEEISKRGAGMPGQHGQITQQELDTVVKTQHEILRQVNEMKNSMSETVRLVSGMQHPGSAGGVYETTQHFIDIKEHLHIVKRDIDNLVQRNMPSNEKPKAPELPPFPSALSTVHFIIFVVVQTVLFIGYIMYRSQQEAAAKKFF | – | 2
4 | Myc-LMAN1 C466A (natural protein, UniProt P49257 31-510, looked up) DGVGGDPAVALPHRRFEYKYSFKGPHLVQSDGTVPFWAHAGNAIPSSDQIRVAPSLKSQRGSVWTKTKAAFENWEVEVTFRVTGRGRIGADGLAIWYAENQGLEGPVFGSADLWNGVGIFFDSFDNDGKKNNPAIVIIGNNGQIHYDHQNDGASQALASCQRDFRNKPYPVRAKITYYQNTLTVMINNGFTPDKNDYEFCAKVENMIIPAQGHFGISAATGGLADDHDVLSFLTFQLTEPGKEPPTPDKEISEKEKEKYQEEFEHFQQELDKKKEEFQKGHPDLQGQPAEEIFESVGDRELRQVFEGQNRIHLEIKQLNRQLDMILDEQRRYVSSLTEEISKRGAGMPGQHGQITQQELDTVVKTQHEILRQVNEMKNSMSETVRLVSGMQHPGSAGGVYETTQHFIDIKEHLHIVKRDIDNLVQRNMPSNEKPKAPELPPFPSCLSTVHFIIFVVVQTVLFIGYIMYRSQQEAAAKKFF | – | 2

From publication PMC5889621 (Proceedings of the National Academy of Sciences of the …, 2018)
